Experimental data published in patent US20170313781A1 (IMMUNOMEDICS, published 2017).
Like-named read-outs stand apart in the source and are kept apart here.

T1: human Trop-2 on the surface of human tumor cells (human, UniProt P09758 27-323)
T1 construct: whole, on cells; also called EGP-1; TACSTD2
T1 sequence (looked up): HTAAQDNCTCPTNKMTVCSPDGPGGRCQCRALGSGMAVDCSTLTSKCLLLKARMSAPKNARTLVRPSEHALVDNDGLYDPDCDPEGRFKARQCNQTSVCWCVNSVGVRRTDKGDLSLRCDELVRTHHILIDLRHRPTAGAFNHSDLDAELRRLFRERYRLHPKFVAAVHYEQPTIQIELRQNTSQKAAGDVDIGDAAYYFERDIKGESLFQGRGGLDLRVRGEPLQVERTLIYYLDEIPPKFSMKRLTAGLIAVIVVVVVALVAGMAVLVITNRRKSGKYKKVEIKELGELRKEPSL

B1: murine RS7 anti-Trop-2 monoclonal antibody (antibody, V domains shown)
VH: VKLQESGPELKKPGETVKISCKASGYTFTNYGMNWVKQAPGKGLKWMGWINTYTGEPTYTDDFKGRFAFSLETSATTAYLQINNLKSEDMATYFCARGGFGSSYWYFDVWGQGTTVTVSS
VL: DIQLTQSHKFMSTSVGDRVSITCKASQDVSIAVAWYQQKPGQSPKLLIYSASYRYTGVPDRFTGSGSGTDFTFTISSVQAEDLAVYYCQQHYITPLTFGAGTKLELK
B2: humanized RS7 (hRS7) anti-Trop-2 IgG (antibody, INN chains, looked up, V domains shown)
VH: QVQLQQSGSELKKPGASVKVSCKASGYTFTNYGMNWVKQAPGQGLKWMGWINTYTGEPTYTDDFKGRFAFSLDTSVSTAYLQISSLKADDTAVYFCARGGFGSSYWYFDVWGQGSLVTVSS
VL: DIQLTQSPSSLSASVGDRVSITCKASQDVSIAVAWYQQKPGKAPKLLIYSASYRYTGVPDRFSGSGSGTDFTLTISSLQPEDFAVYYCQQHYITPLTFGAGTKVEIK
B3: hRS7-CL2-SN-38 (antibody, INN chains, looked up, V domains shown)
VH: B2 VH
VL: B2 VL
modifications: SN-38 via CL2 linker

How the values were obtained:
[1] = biological target: human Trop-2 on the surface of human tumor cells (human) (UniProt P09758); assay: cell binding on NCI-N87 cells, Bmax compared to RS7
[2] = biological target: human Trop-2 on the surface of human tumor cells (human) (UniProt P09758); assay: cell binding on NCI-N87 cells, anti-mouse-HRP, luminescence
[3] = biological target: recombinant human neonatal receptor (FcRn) (human) (UniProt P55899); assay: SPR (BIACORE), FcRn chip
[4] = biological target: rhTrop-2/TACSTD2 (Sino Biological, Inc.) immobilized on a CM5 sensor chip (human) (UniProt P09758); assay: SPR (BIACORE), Trop-2 chip
[5] = biological target: human Trop-2 on the surface of human tumor cells (human) (UniProt P09758); assay: cell-based or functional assay
[6] = biological target: rhTrop-2/TACSTD2 (Sino Biological, Inc.) immobilized on a CM5 sensor chip (human) (UniProt P09758); assay: SPR (BIACORE), low-density recombinant human Trop-2 chip, three runs
[7] = biological target: human Trop-2 on the surface of human tumor cells (human) (UniProt P09758); assay: cell binding assay
[8] = biological target: recombinant human neonatal receptor (FcRn) (human) (UniProt P55899); assay: SPR (BIACORE), low-density FcRn chip, three runs, 400 to 25 nM
[9] = biological target: T1, human Trop-2 on the surface of human …; assay: cell binding on NCI-N87 cells, anti-mouse-HRP, luminescence
[10] = biological target: recombinant human Trop-2 with a His-tag (Sino Biological, Cat#10428-H09H) (human) (UniProt P09758); assay: ELISA on Ni-NTA strips coated with recombinant His-tagged human Trop-2
[11] = biological target: human Trop-2 on the surface of human tumor cells (human) (UniProt P09758); assay: cell-based or functional assay; remark: listed apart in the source

Sequence of recombinant human neonatal receptor (FcRn) (human) (P55899 24-297 limits assumed, chain 1 of 2): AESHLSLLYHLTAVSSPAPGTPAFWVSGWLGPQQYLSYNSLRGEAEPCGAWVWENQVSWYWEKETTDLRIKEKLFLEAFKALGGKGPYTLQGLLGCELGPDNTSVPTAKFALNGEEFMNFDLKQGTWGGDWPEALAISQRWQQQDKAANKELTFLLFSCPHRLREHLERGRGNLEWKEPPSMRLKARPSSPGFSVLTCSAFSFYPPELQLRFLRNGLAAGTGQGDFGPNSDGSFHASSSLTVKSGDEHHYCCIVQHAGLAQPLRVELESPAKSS
Sequence of recombinant human neonatal receptor (FcRn) (human) (P61769 21-119 limits assumed, chain 2 of 2, further chain): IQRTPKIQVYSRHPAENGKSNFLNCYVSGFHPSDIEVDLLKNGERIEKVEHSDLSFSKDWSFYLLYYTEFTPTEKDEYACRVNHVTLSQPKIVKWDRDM

| Molecule | reduction of Bmax against RS7 [1] | Kd [2] | maximum binding (Bmax) (relative luminescent units) [2] | Kd [6] | Kd [7] | Kd [8] | other results |
| --- | --- | --- | --- | --- | --- | --- | --- |
| MAB650 murine monoclonal antibody against human Trop-2 (R&D Systems) | 50% | 0.49 nM | 6020 |  |  |  |  |
| 162-46.2 murine monoclonal antibody against human Trop-2 | 25% | 0.52 nM | 8470 |  |  |  |  |
| sacituzumab govitecan (IMMU-132, hRS7-CL2A-SN-38) (antibody) |  |  |  | 0.26 nM | 1.2 nM | 192 nM | fold decrease in fold change of average binding level (reference not named; the comparison in paragraph 543 is with hRS7) [3]: 2 fold; fold improvement of KD against naked hRS7 [4]: 2 fold; ADCC, percent specific lysis of MDA-MB-468 cells (LDH release, E:T 50:1, 33.3 nM) [5]: 8.6%; median fluorescence intensity of anti-rH2AX-AF488 staining (dsDNA breaks), HCC1806 (Trop-2+) cells [5]: 546 MFI; γH2AX induction in BxPC-3 cells, Mean Fluorescence Intensity [5]: 5350 MFI; γH2AX induction in BxPC-3 cells, Percent Positive [5]: 69% |
| B1 |  |  |  |  |  |  | Kd [9]: 0.57 nM |
| B2 |  |  |  | 0.51 nM |  | 92.4 nM | Kd [10]: 0.3 nM; ADCC, percent specific lysis of BxPC-3 cells (PBMC effectors, E:T 100:1, 33.3 nM) [11]: 8.5%; ADCC, percent specific lysis of MDA-MB-468 cells (LDH release, E:T 50:1, 33.3 nM) [11]: 29.8% |
| B3 |  |  |  |  | 1.2 nM |  |  |
